Reference: the Human Domainome abundance scans (Beltran et al. 2025)
± gives the uncertainty stated by the source.

B1: POU domain, class 4, transcription factor 1, residues 266 to 347; numbered along this chain, Q01851 (parent)
chain: RELEAFAERFKQRRIKLGVTQADVGSALANLKIPGVGSLSQSTICRFESLTLSHNNMIALKPILQAWLEEAEGAQREKMNKP

Variants of: B1
Experiment: abundance fitness (aPCA) (normalised: wild type 0, dead -1); higher = more abundant; growth selection in yeast, the domain comes from the species named
Conditions: Homo sapiens

Variant	abundance fitness
L52S	-0.557 ± 0.067
L52K	-1.28 ± 0.27
L52D	-0.229 ± 0.084
L52C	-0.351 ± 0.079
L52V	-0.588 ± 0.07
L52Y	-0.701 ± 0.26
L52I	-0.496 ± 0.29
L52R	-0.986 ± 0.084
L52W	-0.546 ± 0.071
L52F	-0.24 ± 0.47
L52H	-0.234 ± 0.2
L52E	-0.132 ± 0.052
L52T	-0.472 ± 0.064
H54S	0.057 ± 0.043
H54M	0.044 ± 0.052
H54D	-0.039 ± 0.061
H54I	0.091 ± 0.1
H54A	0.01 ± 0.038
H54R	0.053 ± 0.029
H54Q	-0.02 ± 0.055
H54L	0.046 ± 0.04
H54C	-0.089 ± 0.059
H54F	-0.02 ± 0.1
H54W	-0.014 ± 0.04

Variant	abundance fitness
H54T	0.08 ± 0.052
H54K	0.007 ± 0.066
H54P	0.041 ± 0.045
H54Y	0.057 ± 0.088
H54E	0.058 ± 0.047
H54N	-0.075 ± 0.084
I44V	0.029 ± 0.044
I44M	-0.437 ± 0.086
I44W	-0.827 ± 0.12
I44E	-0.814 ± 0.12
I44K	-1.04 ± 0.24
I44R	-0.999 ± 0.12
I44G	-1 ± 0.093
I44F	-0.726 ± 0.2
I44Y	-1.01 ± 0.42
I44D	-0.957 ± 0.48
I44T	-0.751 ± 0.15
I44S	-0.68 ± 0.12
I44Q	-0.989 ± 0.34
I44L	-0.153 ± 0.058
I44P	-0.864 ± 0.22
I44N	-0.516 ± 0.23
I44A	-1.18 ± 0.21
S40N	-0.05 ± 0.1

Variant	abundance fitness
S40F	-0.263 ± 0.11
S40A	-0.129 ± 0.053
S40W	-0.369 ± 0.076
S40R	-0.155 ± 0.041
S40L	-0.238 ± 0.052
S40M	-0.359 ± 0.096
S40G	-0.058 ± 0.035
S40E	-0.063 ± 0.051
S40H	-0.159 ± 0.16
S40V	-0.331 ± 0.055
S40Y	-0.307 ± 0.24
S40K	-0.079 ± 0.06
S40P	-0.15 ± 0.066
S40Q	-0.072 ± 0.075
S40D	0.042 ± 0.099
S40I	-0.202 ± 0.17
S40C	-0.017 ± 0.057
S49L	-0.181 ± 0.03
S49F	-0.632 ± 0.065
S49G	-0.002 ± 0.029
S49N	0.061 ± 0.045
S49R	-0.073 ± 0.029
S49A	-0.004 ± 0.031
S49H	-0.062 ± 0.039

Variant	abundance fitness
S49T	0.001 ± 0.035
S49I	-0.573 ± 0.063
S49W	-0.541 ± 0.053
S49Q	0.052 ± 0.043
S49E	0.045 ± 0.039
S49C	-0.082 ± 0.037
S49V	-0.654 ± 0.046
S49Y	-0.396 ± 0.044
S49M	-0.101 ± 0.037
L50G	0.049 ± 0.038
L50E	-0.26 ± 0.057
L50Q	-0.01 ± 0.056
L50V	-0.006 ± 0.033
L50A	0.031 ± 0.032
L50W	-0.233 ± 0.052
L50Y	0.008 ± 0.04
L50I	-0.13 ± 0.043
L50D	-0.425 ± 0.053
L50H	0.044 ± 0.045
L50N	-0.032 ± 0.04
L50T	-0.062 ± 0.039
L50C	0.095 ± 0.046
L50R	0.012 ± 0.036
L50F	0.052 ± 0.042

Variant	abundance fitness
L50K	0.029 ± 0.049
L50S	0.018 ± 0.033
L50M	0.055 ± 0.045
M57Q	-0.197 ± 0.064
M57V	-0.273 ± 0.041
M57G	-0.449 ± 0.04
M57T	-0.374 ± 0.062
M57I	-0.16 ± 0.099
M57L	-0.031 ± 0.037
M57F	-0.309 ± 0.16
M57N	-0.19 ± 0.17
M57E	-0.706 ± 0.085
M57S	-0.309 ± 0.053
M57H	-0.399 ± 0.16
M57D	-0.935 ± 0.31
M57A	-0.132 ± 0.047
M57R	-0.775 ± 0.058
M57K	-0.901 ± 0.15
M57W	-0.289 ± 0.049
M57C	-0.268 ± 0.11
M57P	-0.606 ± 0.11
S42P	-0.198 ± 0.083
S42R	-0.006 ± 0.037
S42K	0.093 ± 0.065

Variant	abundance fitness
S42H	-0.152 ± 0.13
S42A	0.012 ± 0.05
S42Y	-0.185 ± 0.22
S42L	-0.107 ± 0.045
S42Q	-0.113 ± 0.065
S42E	0.004 ± 0.045
S42N	0.022 ± 0.082
S42W	-0.18 ± 0.051
S42I	-0.034 ± 0.093
S42C	-0.071 ± 0.055
S42M	-0.042 ± 0.073
S42T	0.029 ± 0.082
S42F	-0.199 ± 0.098
N56W	-0.062 ± 0.049
N56F	-0.136 ± 0.14
N56H	0.004 ± 0.091
N56I	-0.049 ± 0.098
N56E	0.032 ± 0.044
N56S	0.046 ± 0.052
N56C	0.145 ± 0.092
N56D	-0.018 ± 0.075
N56A	0.055 ± 0.046
N56Y	0.23 ± 0.24
N56M	0.078 ± 0.075

Variant	abundance fitness
N56L	0.058 ± 0.042
N56V	0.066 ± 0.04
N56T	-0.029 ± 0.081
N56Q	0.083 ± 0.063
N56P	-0.301 ± 0.094
N56G	-0.023 ± 0.033
N56K	0.015 ± 0.069
F47V	-0.706 ± 0.095
F47S	-0.717 ± 0.14
F47C	-0.969 ± 0.28
F47I	-0.917 ± 0.28
F47L	-0.145 ± 0.063
F47Q	-1 ± 0.34
F47P	-0.717 ± 0.19
F47T	-0.822 ± 0.3
F47R	-0.934 ± 0.12
F47Y	-0.272 ± 0.12
F47A	-1.03 ± 0.18
F47E	-0.819 ± 0.15
A59H	0.227 ± 0.19
A59L	-0.027 ± 0.05
A59T	-0.011 ± 0.061
A59V	0.011 ± 0.04
A59K	0.035 ± 0.079

Variant	abundance fitness
A59G	-0.103 ± 0.037
A59I	-0.021 ± 0.12
A59Q	0.056 ± 0.071
A59Y	-0.072 ± 0.12
A59D	-0.052 ± 0.069
A59S	-0.016 ± 0.05
A59M	0.009 ± 0.067
A59W	-0.198 ± 0.05
A59P	-0.368 ± 0.1
A59N	-0.278 ± 0.2
A59C	-0.054 ± 0.063
A59R	-0.051 ± 0.037
A59E	-0.026 ± 0.044
A59F	0 ± 0.095
L60G	-0.696 ± 0.48
L60E	-0.581 ± 0.26
L60C	0.074 ± 0.17
L60F	-0.355 ± 0.23
L60A	-0.344 ± 0.24
R46V	-0.503 ± 0.071
R46Q	0.042 ± 0.07
R46I	-0.971 ± 0.33
R46P	-0.576 ± 0.18
R46S	-0.009 ± 0.059

Variant	abundance fitness
R46D	0.014 ± 0.11
R46C	-0.117 ± 0.1
R46N	0.047 ± 0.2
R46L	-0.176 ± 0.05
R46H	-0.203 ± 0.17
R46E	0.055 ± 0.061
R46W	-0.391 ± 0.067
R46Y	-0.307 ± 0.17
R46G	-0.038 ± 0.038
R46A	0.094 ± 0.047
R46K	0.005 ± 0.089
R46M	0.128 ± 0.084
L39W	-0.169 ± 0.046
L39Y	-0.277 ± 0.11
I58M	-0.042 ± 0.074
I58Y	-0.118 ± 0.23
I58G	-0.147 ± 0.045
I58E	-0.023 ± 0.069
I58C	-0.094 ± 0.093
I58N	0.021 ± 0.1
I58H	-0.169 ± 0.17
I58D	-0.167 ± 0.091
I58L	-0.031 ± 0.052
I58S	-0.013 ± 0.064

Variant	abundance fitness
I58W	-0.107 ± 0.057
I58T	0.033 ± 0.081
I58V	-0.035 ± 0.048
I58A	0.041 ± 0.053
I58F	-0.075 ± 0.088
T43V	-0.031 ± 0.045
T43H	0.063 ± 0.12
T43K	-0.286 ± 0.15
T43N	-0.199 ± 0.26
T43E	-0.187 ± 0.072
T43Y	-0.238 ± 0.21
T43L	0.053 ± 0.056
T43W	-0.131 ± 0.068
T43A	-0.044 ± 0.051
T43F	-0.587 ± 0.3
T43R	-0.483 ± 0.06
T43D	-0.079 ± 0.075
T43M	0.037 ± 0.076
T43S	-0.109 ± 0.061
T43Q	-0.113 ± 0.11
T43P	-0.606 ± 0.14
T43C	-0.101 ± 0.072
S53Q	-0.013 ± 0.07
S53F	-0.903 ± 0.23

Variant	abundance fitness
S53W	-0.533 ± 0.094
S53M	-0.419 ± 0.076
S53I	-0.173 ± 0.31
S53L	-0.518 ± 0.094
S53A	-0.039 ± 0.043
S53V	-0.389 ± 0.055
S53T	-0.174 ± 0.064
S53N	-0.114 ± 0.1
S53C	0.004 ± 0.089
S53G	-0.039 ± 0.038
S53K	-0.269 ± 0.073
S53D	-0.136 ± 0.075
S53R	-0.139 ± 0.04
S53Y	-0.131 ± 0.19
S53P	0.02 ± 0.055
E48N	-0.973 ± 0.11
E48M	-1.23 ± 0.19
E48W	-0.811 ± 0.078
E48I	-1.28 ± 0.17
E48P	-0.856 ± 0.076
E48D	-1 ± 0.09
E48C	-1.27 ± 0.18
E48S	-0.979 ± 0.063
E48K	-0.823 ± 0.091

Variant	abundance fitness
E48V	-1.04 ± 0.072
E48Y	-1.05 ± 0.12
E48T	-0.954 ± 0.08
E48H	-1.12 ± 0.12
E48A	-1.1 ± 0.094
N55A	0.023 ± 0.041
N55H	-0.06 ± 0.096
N55K	-0.038 ± 0.074
N55I	-0.093 ± 0.14
N55R	0.045 ± 0.039
N55V	-0.051 ± 0.043
N55D	-0.094 ± 0.1
N55W	-0.023 ± 0.062
N55P	0.104 ± 0.074
N55F	-0.18 ± 0.12
N55C	-0.036 ± 0.13
N55T	0.034 ± 0.067
N55G	0.044 ± 0.041
N55L	-0.016 ± 0.052
T51R	-0.017 ± 0.035
T51F	-0.406 ± 0.053
T51E	0.032 ± 0.07
T51N	-0.042 ± 0.04
T51I	-0.205 ± 0.041

Variant	abundance fitness
T51Y	-0.368 ± 0.05
T51H	0.003 ± 0.036
T51S	0.018 ± 0.031
T51K	0.015 ± 0.044
T51A	-0.015 ± 0.034
T51D	0.034 ± 0.046
T51G	-0.021 ± 0.039
T51V	-0.105 ± 0.038
T51Q	0.054 ± 0.038
T51M	-0.004 ± 0.044
T51W	-0.487 ± 0.065
T51P	-0.877 ± 0.085
T51C	-0.106 ± 0.048
T51L	-0.022 ± 0.031
C45N	-0.084 ± 0.17
C45L	-0.073 ± 0.05
C45P	-0.18 ± 0.075
C45I	-0.001 ± 0.09
C45K	0.035 ± 0.058
C45S	0.079 ± 0.047
C45R	0.056 ± 0.04
C45W	-0.076 ± 0.048
C45T	0.11 ± 0.068
C45F	-0.108 ± 0.097

Variant	abundance fitness
C45H	0.089 ± 0.12
C45M	0.03 ± 0.08
C45D	-0.139 ± 0.09
C45E	0.06 ± 0.046
C45Y	-0.037 ± 0.1
C45G	-0.037 ± 0.031
C45A	0.057 ± 0.043
Q41N	-0.137 ± 0.13
Q41A	0.053 ± 0.044
Q41Y	-0.194 ± 0.12
Q41G	0.003 ± 0.034
Q41F	0.084 ± 0.095
Q41H	0.149 ± 0.11
Q41T	-0.055 ± 0.062
Q41V	-0.054 ± 0.04
Q41M	-0.074 ± 0.064
Q41E	0.051 ± 0.039
Q41P	0.104 ± 0.091
Q41K	0 ± 0.066
Q41I	0.074 ± 0.14
Q41W	-0.074 ± 0.051
Q41D	0.048 ± 0.084
